T1: PUF4 RNA-binding domain (Saccharomyces cerevisiae, UniProt P25339 537-888)
T1 sequence: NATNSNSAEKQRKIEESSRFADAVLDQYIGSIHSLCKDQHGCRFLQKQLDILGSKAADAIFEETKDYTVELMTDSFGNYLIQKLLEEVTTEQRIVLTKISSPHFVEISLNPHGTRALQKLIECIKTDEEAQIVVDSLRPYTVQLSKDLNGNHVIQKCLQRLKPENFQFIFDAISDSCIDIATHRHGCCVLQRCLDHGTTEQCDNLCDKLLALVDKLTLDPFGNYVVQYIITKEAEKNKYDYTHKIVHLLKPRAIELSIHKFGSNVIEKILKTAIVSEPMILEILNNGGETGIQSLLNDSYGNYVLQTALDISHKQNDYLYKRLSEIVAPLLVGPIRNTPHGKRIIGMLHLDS

B1: Ic_S4_P5E.1_K5.1_C5.1_H5.1_A5.1_[T6G]_[A7C]_F5.1_[T8C]_[T9C]_[A10T]_T5.1 (ssRNA)
RNA: UUUGACAACUGAUCGUUCUUUCUUGUAUGCCCUUUCUUUCUCGAUCAGUUGUCUUU
B2: Ic_S4_P5E.1_K5.1_C5.1_H5.1_A5.1_[T5C]_[T6G]_[A7C]_F5.1_[T8A]_[T9G]_[A10C]_T5.1 (ssRNA)
RNA: UUUGACAACUGAUCGUUCUUUCUUGUACGCAGCUUCUUUCUCGAUCAGUUGUCUUU
B3: Ic_S4_P5E.1_K5.1_C5.1_H5.1_A5.1_[T5C]_[T6A]_[A7T]_F5.1_[T8A]_[T9C]_[A10G]_T5.1 (ssRNA)
RNA: UUUGACAACUGAUCGUUCUUUCUUGUACAUACGUUCUUUCUCGAUCAGUUGUCUUU
B4: Ic_S4_P5E.1_K5.1_C5.1_H5.1_A5.1_[T5A]_[A7T]_F5.1_[T9G]_[A10C]_T5.1 (ssRNA)
RNA: UUUGACAACUGAUCGUUCUUUCUUGUAAUUUGCUUCUUUCUCGAUCAGUUGUCUUU
B5: Ic_S4_P5E.1_K5.1_C5.1_H5.1_A5.1_[T5A]_F5.1_[T8C]_[T9C]_[A10T]_T5.1 (ssRNA)
RNA: UUUGACAACUGAUCGUUCUUUCUUGUAAUACCUUUCUUUCUCGAUCAGUUGUCUUU
B6: Ic_S4_P5E.1_K5.1_C5.1_H5.1_A5.1_[T5C]_[A7C]_F5.1_[T8A]_[T9C]_[A10G]_T5.1 (ssRNA)
RNA: UUUGACAACUGAUCGUUCUUUCUUGUACUCACGUUCUUUCUCGAUCAGUUGUCUUU
B7: Ic_S4_P5E.1_K5.1_C5.1_H5.1_A5.1_[T5C]_[T6A]_[A7G]_F5.1_[T9C]_[A10C]_T5.1 (ssRNA)
RNA: UUUGACAACUGAUCGUUCUUUCUUGUACAGUCCUUCUUUCUCGAUCAGUUGUCUUU
B8: Ic_S4_P5E.1_K5.1_C5.1_H5.1_A5.1_[T5A]_[A7C]_F5.1_[T8A]_[A10C]_T5.1 (ssRNA)
RNA: UUUGACAACUGAUCGUUCUUUCUUGUAAUCAUCUUCUUUCUCGAUCAGUUGUCUUU
B9: Ic_S4_P5E.1_K5.1_C5.1_H5.1_A5.1_[T6G]_[A7C]_F5.1_[T8C]_[T9A]_[A10T]_T5.1 (ssRNA)
RNA: UUUGACAACUGAUCGUUCUUUCUUGUAUGCCAUUUCUUUCUCGAUCAGUUGUCUUU
B10: Ic_S4_P5E.1_K5.1_C5.1_H5.1_A5.1_[T5C]_[T6A]_[A7C]_F5.1_[T8A]_[A10G]_T5.1 (ssRNA)
RNA: UUUGACAACUGAUCGUUCUUUCUUGUACACAUGUUCUUUCUCGAUCAGUUGUCUUU
B11: Ic_S4_P5E.1_K5.1_C5.1_H5.1_A5.1_[T6A]_[A7T]_F5.1_[T9C]_[A10C]_T5.1 (ssRNA)
RNA: UUUGACAACUGAUCGUUCUUUCUUGUAUAUUCCUUCUUUCUCGAUCAGUUGUCUUU
B12: Ic_S4_P5E.1_K5.1_C5.1_H5.1_A5.1_[T6C]_[A7G]_F5.1_[T8C]_[T9C]_T5.1 (ssRNA)
RNA: UUUGACAACUGAUCGUUCUUUCUUGUAUCGCCAUUCUUUCUCGAUCAGUUGUCUUU
B13: Ic_S4_P5E.1_K5.1_C5.1_H5.1_A5.1_[T6A]_[A7C]_F5.1_[T8C]_[T9C]_[A10G]_T5.1 (ssRNA)
RNA: UUUGACAACUGAUCGUUCUUUCUUGUAUACCCGUUCUUUCUCGAUCAGUUGUCUUU
B14: Ic_S4_P5E.1_K5.1_C5.1_H5.1_A5.1_[T6C]_F5.1_[T9G]_[A10C]_T5.1 (ssRNA)
RNA: UUUGACAACUGAUCGUUCUUUCUUGUAUCAUGCUUCUUUCUCGAUCAGUUGUCUUU
B15: Ic_S4_P5E.1_K5.1_C5.1_H5.1_A5.1_[T5C]_[T6A]_[A7T]_F5.1_[T8A]_[T9G]_[A10T]_T5.1 (ssRNA)
RNA: UUUGACAACUGAUCGUUCUUUCUUGUACAUAGUUUCUUUCUCGAUCAGUUGUCUUU
B16: Ic_S4_P5E.1_K5.1_C5.1_H5.1_A5.1_[T5C]_[T6C]_[A7T]_F5.1_[T8A]_[T9G]_[A10C]_T5.1 (ssRNA)
RNA: UUUGACAACUGAUCGUUCUUUCUUGUACCUAGCUUCUUUCUCGAUCAGUUGUCUUU
B17: Ic_S4_P5E.1_K5.1_C5.1_H5.1_A5.1_[A7T]_F5.1_[T9C]_[A10T]_T5.1 (ssRNA)
RNA: UUUGACAACUGAUCGUUCUUUCUUGUAUUUUCUUUCUUUCUCGAUCAGUUGUCUUU
B18: Ic_S4_P5E.1_K5.1_C5.1_H5.1_A5.1_[T6A]_F5.1_[T9G]_[A10G]_T5.1 (ssRNA)
RNA: UUUGACAACUGAUCGUUCUUUCUUGUAUAAUGGUUCUUUCUCGAUCAGUUGUCUUU
B19: Ic_S4_P5E.1_K5.1_C5.1_H5.1_A5.1_[A7C]_F5.1_[T8G]_[A10T]_T5.1 (ssRNA)
RNA: UUUGACAACUGAUCGUUCUUUCUUGUAUUCGUUUUCUUUCUCGAUCAGUUGUCUUU
B20: Ic_S4_P5E.1_K5.1_C5.1_H5.1_A5.1_[T5C]_[A7G]_F5.1_[T8G]_T5.1 (ssRNA)
RNA: UUUGACAACUGAUCGUUCUUUCUUGUACUGGUAUUCUUUCUCGAUCAGUUGUCUUU
B21: Ic_S4_P5E.1_K5.1_C5.1_H5.1_A5.1_[T6G]_[A7T]_F5.1_[T8A]_[T9C]_[A10C]_T5.1 (ssRNA)
RNA: UUUGACAACUGAUCGUUCUUUCUUGUAUGUACCUUCUUUCUCGAUCAGUUGUCUUU
B22: Ic_S4_P5E.1_K5.1_C5.1_H5.1_A5.1_[T5C]_[T6A]_F5.1_[T8A]_[A10C]_T5.1 (ssRNA)
RNA: UUUGACAACUGAUCGUUCUUUCUUGUACAAAUCUUCUUUCUCGAUCAGUUGUCUUU
B23: Ic_S4_P5E.1_K5.1_C5.1_H5.1_A5.1_[A7G]_F5.1_[T8G]_[A10T]_T5.1 (ssRNA)
RNA: UUUGACAACUGAUCGUUCUUUCUUGUAUUGGUUUUCUUUCUCGAUCAGUUGUCUUU
B24: Ic_S4_P5E.1_K5.1_C5.1_H5.1_A5.1_[T6C]_[A7T]_F5.1_[T8A]_T5.1 (ssRNA)
RNA: UUUGACAACUGAUCGUUCUUUCUUGUAUCUAUAUUCUUUCUCGAUCAGUUGUCUUU

Each binder was assayed against T1, PUF4 RNA-binding domain (assay: Mg; RNA-MaP; 20 mM Na-HEPES pH 7.4, 30 mM KOAc, 0.75 mM MgCl2, 0.1% Tween-20, 5% glycerol, 0.1 mg/mL BSA, 2 mM DTT; 25 C; 0.0125-409.6 nM protein). Settings: tags: N-His6-TEV cleaved; C-SNAP kept, Cy3B-labelled; label: tethered on chip by stalled RNA polymerase.
B1 gave a Kd of 527 nM. Work on B2 yielded a Kd of 882 nM. For B3, the Kd was 14.5 nM. B4 showed a Kd of 46.7 nM. B5 gave a Kd of 379 nM. In the case of B6, the Kd is reported as > 2300 nM. For B7, the Kd was 13.2 nM. In the case of B8, the Kd is reported as 432 nM. In the case of B9, the Kd is reported as 56.4 nM. For B10, the Kd was 130 nM. With B11 the Kd was 3.74 nM. With B12 the Kd was 850 nM. B13 showed a Kd of 117 nM. In the case of B14, the Kd is reported as 14.6 nM. Binder B15 has a Kd of 5 nM. With B16 the Kd was 74.3 nM. B17 gave a Kd of 15.6 nM. Work on B18 yielded a Kd of 16.6 nM. For B19, the Kd was 59.5 nM. B20 showed a Kd of 34 nM. In the case of B21, the Kd is reported as 28.6 nM. Binder B22 has a Kd of 26.1 nM. For B23, the Kd was 881 nM. In the case of B24, the Kd is reported as 3.97 nM.
